Laboratory results: patent US20170159025A1

Assays:
EGFRvIII = EGFRvIII (UniProt P00533); test: cell-based or functional assay
[1] = target: human epidermal growth factor receptor (EGFR) (human) (UniProt P00533); test: cell-based or functional assay

## chimeric antigen receptor 806-28BBZ, scFv(EGFR)-CD28-CD28-CD137-CD3 zeta (from UniProt P01732 138-182; P10747 153-220; Q07011 214-255; P20963 52-164)
EGFRvIII
  Cytotoxicity % (LDH release), U87-EGFRvIII cells, effector to target 1:1: 41%
  Cytotoxicity % (LDH release), U87-EGFRvIII cells, effector to target 3:1: 81%
  Cytotoxicity against target cells % (LDH release), U87-EGFRvIII cells, effector to target 5:1, 20 h: 85%
[1]
  Cytotoxicity % (LDH release), BxPC-3 cells, effector to target 1:1: 49%
  Cytotoxicity % (LDH release), BxPC-3 cells, effector to target 1:3: 24%
  Cytotoxicity % (LDH release), BxPC-3 cells, effector to target 3:1: 70%
  Cytotoxicity % (LDH release), CFPAC-1 cells, effector to target 3:1: 40%
  Cytotoxicity % (LDH release), PANC-1 cells, effector to target 1:1: 28%
  Cytotoxicity % (LDH release), PANC-1 cells, effector to target 3:1: 65%
  Cytotoxicity % (LDH release), U87-EGFR cells, effector to target 1:1: 49%
  Cytotoxicity % (LDH release), U87-EGFR cells, effector to target 1:3: 29%
  Cytotoxicity % (LDH release), U87-EGFR cells, effector to target 3:1: 98%
  Cytotoxicity % (LDH release), U87 cells, effector to target 1:1: -14%
  Cytotoxicity % (LDH release), U87 cells, effector to target 1:3: -25%
  Cytotoxicity % (LDH release), U87 cells, effector to target 3:1: -2%

## chimeric antigen receptor 806-Z, scFv(EGFR)-CD8-CD3 zeta (from UniProt P01732 138-203; P20963 52-164)
EGFRvIII
  Cytotoxicity against target cells % (LDH release), U87-EGFRvIII cells, effector to target 5:1, 20 h: 56%
  cytotoxicity against tumor cells U87-EGFRvIII (LDH release): 55.5%
[1]
  Cytotoxicity % (LDH release), BxPC-3 cells, effector to target 1:1: 24%
  Cytotoxicity % (LDH release), BxPC-3 cells, effector to target 1:3: 14%
  Cytotoxicity % (LDH release), BxPC-3 cells, effector to target 3:1: 44%
  Cytotoxicity % (LDH release), CFPAC-1 cells, effector to target 1:1: 35%
  Cytotoxicity % (LDH release), CFPAC-1 cells, effector to target 1:3: 12%
  Cytotoxicity % (LDH release), CFPAC-1 cells, effector to target 3:1: 43%
  Cytotoxicity % (LDH release), PANC-1 cells, effector to target 1:1: 34%
  Cytotoxicity % (LDH release), PANC-1 cells, effector to target 1:3: 18%
